Experimental data reported in patent US10052364B2, “Osteocalcin as a treatment for cognitive disorders” (THE TRUSTEES OF COLUMBIA UNIVERSITY IN THE CITY OF NEW YORK, priority 2013, dated 2018).

Assays:
WT mice = test: ICV infusion in adult WT mice, D/LT and EPMT tests; assay type: in vivo, mouse; settings: ICV 3 or 10 ng/hour for one month
Description: FIG. 8. Osteocalcin improves cognitive function in adult wild-type (WT) mice. Results from dark and light (DLT) and elevated plus maze tests (EPMT) performed in 3-month old WT mice infused ICV with vehicle (PBS) or Ocn (3, 10, 30 ng/hour) are shown. (A) DLT measuring the latency to enter, the number of entries, and the time spend in lit compartment. (B) EPMT measuring the number of entries into open arms and the time spend in lit compartments.
Each mouse was allowed to explore the apparatus for 5 min. Global activity was assessed by measuring the number of entries […] (David et al, 2009, Neuron 62:479-493). Anxiety was assessed by comparing the time spent in the open arms.
The test was performed in a quiet, darkened room. Mice were individually housed in cages containing a handful of bedding from their home cage and acclimated to the room at least 1 h before the test. Naïve mice were placed individually in the testing chamber in the dark compartment. The test was 5 min in duration, and time spent and number of entries in light compartments were recorded a highly trained observer, blind to the genotype of the mice. […]

Osteocalcin-/- mice = test: Intracerebro-ventricular (ICV) infusion in Osteocalcin-/- mice, behavioral tests; assay type: in vivo, mouse
Description: FIG. 4. Administration of osteocalcin prevents anxiety and depression. (A-E) Behavioral analyses of adult Osteocalcin^−/− mice receiving osteocalcin through intracerebro-ventricular (ICV) infusions. (A) Light and Dark test, (B) Elevated plus maze test, (C) Open field test, (D) Forced swim test, and (E) Tail suspension test performed in a cohort of WT (n=7) and Osteocalcin^−/− infused with vehicle or osteocalcin (10 ng/hour). In each set of three bars, the rightmost bar represents the results following administration of osteocalcin.
Osteocalcin^−/−, Gprc6a^−/−, Osteocalcin-mCherry, and Osteocalcin floxed mice have been previously described (Ducy et al., 1996, Nature 382:448-452; Oury et al., 2011, Cell 144:796-809). Mouse genotypes were determined by PCR. For all experiments, controls were littermate female WT, Cre-expressing, or flox/flox. All mice were maintained on a pure 129-Sv genetic background except for the inducible deletion Osteocalcin model (mix background: 25% C57/BL6 and 75% 129sv). […] Leptin and osteocalcin content in sera and tissues were determined by ELISA.
Tail suspension testing was performed as previously described (Mayorga et al., 2001, J. Pharmacology Exper. Therapeutics 298:1101-1107; Stem et al., 1985, Psychopharmacology 85:367-370). […] The parameter recorded was the number of seconds spent immobile. Mice were scored by a highly trained observer, over a 5 min period, blind to the genotype of the mice.
Anxiety and locomotor activity of mice were measured using the open field test (David et al., 2009, Neuron 62:479-493). […] Mice were monitored throughout each test session by video tracking and analyzed using Matlab software. […] The overall motor activity was quantified as the total distance travelled. The anxiety was quantified measuring the number of rearings and the time and distance spent in the center versus periphery of the open field chamber (in %).
Each mouse was allowed to explore the apparatus for 5 min. Global activity was assessed by measuring the number of entries […] (David et al, 2009, Neuron 62:479-493). […]

B1: uncarboxylated osteocalcin: Recombinant osteocalcin bacterially produced, cleaved from the GST subunit; completely undercarboxylated at all three sites (protein, listed as Homo sapiens)
chain: MRALTLLALLALAALCIAGQAGAKPSGAESSKGAAFVSKQEGSEVVKRPRRYLYQWLGAPVPYPDPLEPRREVCELNPDCDELADHIGFQEAYRRFYGPV
modifications: uncarboxylated
notes: Recombinant osteocalcin bacterially produced, cleaved from the GST subunit; completely undercarboxylated at all three sites
- exploration of the lit compartment and open arms in D/LT and EPM tests (WT mice; WT mice): increase in the exploration
- anxiety-like behavior (D/LT and EPMT) (WT mice; WT mice implanted at 2 months): decrease in anxiety-like behavior
- leakage of centrally delivered hormone into the general circulation (osteocalcin in blood) (Osteocalcin-/- mice; ICV 10 ng/hour, infused Osteocalcin-/- mice): no leakage
- anxiety and depression features (DLT, EPMT, OFT, FST, TST) (Osteocalcin-/- mice; ICV 10 ng/hour, week-long treatment, Osteocalcin-/- mice): corrected the anxiety and depression features
- defects in anxiety, depression, learning, and memory (Osteocalcin-/- mice; direct administration to the brains of adult Osteocalcin-/- mice): rescued defects in anxiety, depression, learning, and memory
